Assay results reported in IntAct's records for PubMed 28712572.

Molecular target: gbrap_human GABARAP (UniProt O95166)
Sequence (O95166 whole entry): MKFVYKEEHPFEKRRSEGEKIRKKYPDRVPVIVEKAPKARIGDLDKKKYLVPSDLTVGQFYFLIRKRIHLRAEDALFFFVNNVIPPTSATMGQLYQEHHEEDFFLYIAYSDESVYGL

Substance	effect of a mutation on the interaction
Pericentriolar material 1 protein (Homo sapiens), Q15154 D1959A	with no effect
Pericentriolar material 1 protein (Homo sapiens), Q15154 D1959C	with no effect
Pericentriolar material 1 protein (Homo sapiens), Q15154 D1959E	with no effect
Pericentriolar material 1 protein (Homo sapiens), Q15154 D1959F	with no effect
Pericentriolar material 1 protein (Homo sapiens), Q15154 D1959G	with no effect
Pericentriolar material 1 protein (Homo sapiens), Q15154 D1959H	with no effect
Pericentriolar material 1 protein (Homo sapiens), Q15154 D1959I	with no effect
Pericentriolar material 1 protein (Homo sapiens), Q15154 D1959K	decreasing interaction strength
Pericentriolar material 1 protein (Homo sapiens), Q15154 D1959L	with no effect
Pericentriolar material 1 protein (Homo sapiens), Q15154 D1959M	with no effect
Pericentriolar material 1 protein (Homo sapiens), Q15154 D1959N	with no effect
Pericentriolar material 1 protein (Homo sapiens), Q15154 D1959P	with no effect
Pericentriolar material 1 protein (Homo sapiens), Q15154 D1959Q	with no effect
Pericentriolar material 1 protein (Homo sapiens), Q15154 D1959R	with no effect
Pericentriolar material 1 protein (Homo sapiens), Q15154 D1959S	with no effect
Pericentriolar material 1 protein (Homo sapiens), Q15154 D1959T	with no effect
Pericentriolar material 1 protein (Homo sapiens), Q15154 D1959V	decreasing interaction strength
Pericentriolar material 1 protein (Homo sapiens), Q15154 D1959W	with no effect
Pericentriolar material 1 protein (Homo sapiens), Q15154 D1959Y	with no effect
Pericentriolar material 1 protein (Homo sapiens), Q15154 D1962A	with no effect
Pericentriolar material 1 protein (Homo sapiens), Q15154 D1962C	with no effect
Pericentriolar material 1 protein (Homo sapiens), Q15154 D1962E	with no effect
Pericentriolar material 1 protein (Homo sapiens), Q15154 D1962F	with no effect

Substance	effect of a mutation on the interaction
Pericentriolar material 1 protein (Homo sapiens), Q15154 D1962G	with no effect
Pericentriolar material 1 protein (Homo sapiens), Q15154 D1962H	decreasing interaction strength
Pericentriolar material 1 protein (Homo sapiens), Q15154 D1962I	disrupting interaction strength
Pericentriolar material 1 protein (Homo sapiens), Q15154 D1962K	disrupting interaction strength
Pericentriolar material 1 protein (Homo sapiens), Q15154 D1962L	disrupting interaction strength
Pericentriolar material 1 protein (Homo sapiens), Q15154 D1962M	decreasing interaction strength
Pericentriolar material 1 protein (Homo sapiens), Q15154 D1962N	decreasing interaction strength
Pericentriolar material 1 protein (Homo sapiens), Q15154 D1962P	disrupting interaction strength
Pericentriolar material 1 protein (Homo sapiens), Q15154 D1962Q	decreasing interaction strength
Pericentriolar material 1 protein (Homo sapiens), Q15154 D1962R	decreasing interaction strength
Pericentriolar material 1 protein (Homo sapiens), Q15154 D1962S	with no effect
Pericentriolar material 1 protein (Homo sapiens), Q15154 D1962T	with no effect
Pericentriolar material 1 protein (Homo sapiens), Q15154 D1962V	disrupting interaction strength
Pericentriolar material 1 protein (Homo sapiens), Q15154 D1962W	with no effect
Pericentriolar material 1 protein (Homo sapiens), Q15154 D1962Y	disrupting interaction strength
Pericentriolar material 1 protein (Homo sapiens), Q15154 D1968A	with no effect
Pericentriolar material 1 protein (Homo sapiens), Q15154 D1968C	with no effect
Pericentriolar material 1 protein (Homo sapiens), Q15154 D1968E	with no effect
Pericentriolar material 1 protein (Homo sapiens), Q15154 D1968F	with no effect
Pericentriolar material 1 protein (Homo sapiens), Q15154 D1968G	with no effect
Pericentriolar material 1 protein (Homo sapiens), Q15154 D1968H	with no effect
Pericentriolar material 1 protein (Homo sapiens), Q15154 D1968I	with no effect
Pericentriolar material 1 protein (Homo sapiens), Q15154 D1968K	with no effect

Substance	effect of a mutation on the interaction
Pericentriolar material 1 protein (Homo sapiens), Q15154 D1968L	with no effect
Pericentriolar material 1 protein (Homo sapiens), Q15154 D1968M	with no effect
Pericentriolar material 1 protein (Homo sapiens), Q15154 D1968N	with no effect
Pericentriolar material 1 protein (Homo sapiens), Q15154 D1968P	with no effect
Pericentriolar material 1 protein (Homo sapiens), Q15154 D1968Q	with no effect
Pericentriolar material 1 protein (Homo sapiens), Q15154 D1968R	with no effect
Pericentriolar material 1 protein (Homo sapiens), Q15154 D1968S	with no effect
Pericentriolar material 1 protein (Homo sapiens), Q15154 D1968T	with no effect
Pericentriolar material 1 protein (Homo sapiens), Q15154 D1968V	with no effect
Pericentriolar material 1 protein (Homo sapiens), Q15154 D1968W	with no effect
Pericentriolar material 1 protein (Homo sapiens), Q15154 D1968Y	with no effect
Pericentriolar material 1 protein (Homo sapiens), Q15154 E1960A	with no effect
Pericentriolar material 1 protein (Homo sapiens), Q15154 E1960C	with no effect
Pericentriolar material 1 protein (Homo sapiens), Q15154 E1960D	with no effect
Pericentriolar material 1 protein (Homo sapiens), Q15154 E1960F	with no effect
Pericentriolar material 1 protein (Homo sapiens), Q15154 E1960G	with no effect
Pericentriolar material 1 protein (Homo sapiens), Q15154 E1960H	with no effect
Pericentriolar material 1 protein (Homo sapiens), Q15154 E1960I	with no effect
Pericentriolar material 1 protein (Homo sapiens), Q15154 E1960K	decreasing interaction strength
Pericentriolar material 1 protein (Homo sapiens), Q15154 E1960L	with no effect
Pericentriolar material 1 protein (Homo sapiens), Q15154 E1960M	decreasing interaction strength
Pericentriolar material 1 protein (Homo sapiens), Q15154 E1960N	with no effect
Pericentriolar material 1 protein (Homo sapiens), Q15154 E1960P	with no effect
